Assay results: patent publication US20260049148A1, “PROTEASE-CLEAVABLE MOIETIES AND METHODS OF USE THEREOF” (CytomX Therapeutics, Inc., priority 2022, published 2026)
Square brackets hold non-standard residues; d marks the D form. Ends that are not written are not given here. * marks the point of attachment. Dnp = O=[N+]([O-])c1ccc(*)c([N+](=O)[O-])c1; Mca = COc1ccc2c(CC(=O)*)cc(=O)oc2c1

Tests used:
Assay in all cases: Internally quenched peptide probe cleavage assay
Type in all cases: biochemical
Details in all cases: 20 μM internally quenched peptide probe, 20 nM protease, 37° C.
MMP14 = MMP14 (Homo sapiens, UniProt P50281)
Source text: (§1) The study provided herein evaluated the cleavability kinetics (i.e., pM/s and kcat/KM (M^−1s^−1)) of CMs with matrix metalloprotease (MMP) 2 (MMP2), MMP9, and MMP14. The CM AIALY (SEQ ID NO: 5) was presented in an internally quenched peptide probe format, rather than included in an activatable antibody format. In the internally quenched probe, the CM sequence was positioned between a 7-methoxycoumarin-4-acetyl (MCA) fluorophore and a 2,4-dinitrophenyl (DNP) quencher such that cleavage of the CM sequence produces a fluorescence signal. The probe was of the following design: (MCA)-[…](DNP)-D-Arg (SEQ ID NO: 160). The cleavage rates (pM/s) were measured using 20 μM internally quenched peptide probe and 20 nM MMP2, MMP9, or MMP14. Cleavability kinetics (i.e., pM/s and kcat/KM (M^−1s^−1)) were determined in 96- or 384-well plate format at 37° C. in the following buffers: 50 mM Tris-HCl (pH 7.5), 10 mM CaCl2), 150 mM NaCl, 0.05% (w/v) Brij-35 for MMP2 and MMP9 or 50 mM HEPES (pH 6.8), 10 mM CaCl2), 0.5 mM MgCl2, 0.05% (w/v) Brij-35 for MMP14. Cleavability kinetics were determined on an Infinite 200 PRO (Tecan) multimode plate reader using a fluorescence excitation wavelength of 320 nm and an emission wavelength of 405 nm.

MMP9 = MMP9 (Homo sapiens, UniProt P14780)
Source text: as §1

MMP2 = molecular target: T1, MMP2 (Homo sapiens, UniProt P08253)
T1 sequence (P08253 110-660): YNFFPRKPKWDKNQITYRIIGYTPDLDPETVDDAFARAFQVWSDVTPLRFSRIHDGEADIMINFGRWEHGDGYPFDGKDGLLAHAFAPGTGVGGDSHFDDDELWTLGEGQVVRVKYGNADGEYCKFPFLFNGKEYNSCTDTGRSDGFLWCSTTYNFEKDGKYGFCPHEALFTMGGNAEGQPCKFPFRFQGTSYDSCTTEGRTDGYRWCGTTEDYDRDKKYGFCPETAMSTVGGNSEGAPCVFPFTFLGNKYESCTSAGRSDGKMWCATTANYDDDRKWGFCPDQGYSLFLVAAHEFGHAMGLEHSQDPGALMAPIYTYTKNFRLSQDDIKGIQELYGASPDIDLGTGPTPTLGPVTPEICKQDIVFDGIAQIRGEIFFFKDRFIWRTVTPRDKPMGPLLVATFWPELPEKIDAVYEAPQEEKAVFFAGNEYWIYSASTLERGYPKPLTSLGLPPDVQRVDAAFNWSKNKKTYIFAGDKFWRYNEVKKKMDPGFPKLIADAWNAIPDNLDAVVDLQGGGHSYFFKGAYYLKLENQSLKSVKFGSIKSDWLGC
Source text: as §1

MMP9, sequence (P14780 94-707): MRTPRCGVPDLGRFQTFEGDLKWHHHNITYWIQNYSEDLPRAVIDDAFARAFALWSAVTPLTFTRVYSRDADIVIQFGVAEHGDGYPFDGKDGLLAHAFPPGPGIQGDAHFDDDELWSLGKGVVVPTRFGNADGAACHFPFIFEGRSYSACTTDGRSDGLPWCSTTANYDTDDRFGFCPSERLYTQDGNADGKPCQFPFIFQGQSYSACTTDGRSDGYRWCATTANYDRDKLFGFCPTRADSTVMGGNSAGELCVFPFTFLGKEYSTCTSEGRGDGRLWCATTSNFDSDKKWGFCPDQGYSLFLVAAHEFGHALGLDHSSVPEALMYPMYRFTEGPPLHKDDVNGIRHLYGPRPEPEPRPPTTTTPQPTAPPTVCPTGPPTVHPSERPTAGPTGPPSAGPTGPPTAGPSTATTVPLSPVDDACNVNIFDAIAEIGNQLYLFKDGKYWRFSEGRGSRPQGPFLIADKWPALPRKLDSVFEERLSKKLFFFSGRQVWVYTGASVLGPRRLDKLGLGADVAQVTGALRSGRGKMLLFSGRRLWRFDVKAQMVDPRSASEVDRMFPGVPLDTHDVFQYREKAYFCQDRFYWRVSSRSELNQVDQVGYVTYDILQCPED

Probe Cleavage (pM/s) MMP14 (MMP14): 145 pM/s
Probe Cleavage (pM/s) MMP9 (MMP9): 87.7 pM/s
Probe Cleavage (pM/s) MMP2 (MMP2): 135 pM/s
Substance: (MCA)-Gly-Ser-Ala-Ile-Ala-Leu-Tyr-Gly-Gly-Ser-Lys (DNP)-D-Arg (Mca-GSAIALYGGSK(Dnp)[dR])
